The target of this assay is T1, Smt3 (SUMO), endogenous, Q12306.
T1 chain: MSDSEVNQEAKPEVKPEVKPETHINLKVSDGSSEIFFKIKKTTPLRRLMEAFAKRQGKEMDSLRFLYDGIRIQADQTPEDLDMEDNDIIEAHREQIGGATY
Briefly: co-IP with mass spectrometry. As to conditions: chain shown with the change, cross-linked in vivo with formaldehyde, p value 0.04637.

A value given as a limit tells only on which side of the number the result lay.

B1: N-terminal 3xHA-tagged wild-type Irc20, Q06554 C1239A (protein)
chain: MSAVGALLAREYNVTAEKCDFFLENGSFDSVIAALPALNQEQETVTQKVSKNGKELINVASVNIEIPERISLSNNGRQLFKFIVDIEILPCENDNEATLVVSSDSVSLFQIGFKMENNSKIAVDKQLPLILDICAHKNQERALRNQLENRKSLERKPSRKRRKKNSNVNDPEKLLKSRIHELSLSYKDFECSPVVFRYNDSSLTWVLSFNLKLKFLNNKFNRFSVEANQILDLTFSNRDENEFERYHKHSHIHSNFIQKQFISQILEYSKDRLSKIKPFLPQSIPDLKVNLLPFQRESVEWMLIKEGHGNSLSDTPTVIDEVGLIDFMNEYYAYGYELIARSPDEVGPSLLWNKLTGYILTTEDAAHLYNQYRKERLSGDYPVCAKGVLAEEMGLGKTIEILSLILLNRRKLKDSEATFIDDENRTITKTKTTLIICPNAILKQWLEEIELHANSLKWYTYRGYNEIMKDCKTVDEAVQQLCQYDIIVTSYNIIATEVHHAEFNRSIRSRRLKSPKYDYSSPLALMQFYRIILDEVQMLRSSSTYSAKCTSLLHRIHTWGVSGTPIQNIYNFRMIMSYLKLHPFCDEVDFIRTLQEEIKLRNEAKDYTSNDFVCQLKGVRFSIKDCMNIFYRYDLCIRHSKANVASQIHIPRQHNFIIPLEFAPIEWDNYLNLWNNFLELSGYNSDGSGSPRVSNAFLNEWLSRLRYICCHALFPEILSTRQKRLHGHLSRISNIDDILISMRMDAFDSLIGYYRERFHLSIKQAQYELEISNTPAKALESFIKIRDDLMIHIRQKFNVEDPFDKSLNLSEDEDEHMDERFGEKETSSGDESDREINGAKNHDNHNNDGMLSNHLKKKGLRAMMNLLHDCYFFLGSVYYNLGTRKLEEADDKHRKEKTEEVVYSDVFPKNELEEIEENRLLEQENYANAEILRKSILSSEARKVDMTIKMARTKFAPMTSNIPLRLINIEFDHKNDYSSNLAVSRCFKSLSKLIEGLNEQTKNFNELLDELLIIIYEPVHRTEDDDSTNKIIGNEEYSTSIDSQDKIFSLLGCLEIILQNRDNILTSESEVKIPKHLVPEGSIISKYQKQLLNSLRLISGTPLRTVFDELKNSRIVRRISSSNESESTIQNFEDYLLQYEVESKSLFKYNKQVRESLKILGSIYNAKTEYYSQLQRISDSLVSLHSLSAPQLSHLIRTINKSLGGTLDAKINNIESRLIYLKNLSRLKDTLNDNQILSASICLGEVEIGAIIKCGHYFCKSCILTWLRAHSKCPICKGFCSISEVYNFKFKNSTEKREKEIQEPRREGADSSQDNSNENSIISNMSEVEKLFGNKYEQFHQINEVHQIHIKESFGAKIDFVIKLISYLRLKSEQENADPPQVILYSQKTEYLKVIGKVLKLYHIEHLACLSNTANVGETINNFKRQPSVTCLLLNVKTLGAGLNLINAKHIFLLDPILNNSDELQAMGRNNRIGQDEETFVWNFMIRNTVEENILRYKCILEERKRKEKSKKGDKYDEAQDETDNEESDDAKFEISVVDQEVSNEHLWNCFFHGSD
B1: the ratio to parent was greater than 11. In addition, the other: sum (parent: 0) was determined as 11.

(Values after publication PMC3796546.)
